Here are results for 4 molecules from article PMC5218393 (PLoS ONE, 2017).

Positions count from the first letter of the chain named.

One assay has as its target H12M35-Fc (Homo sapiens / Mus musculus chimera, UniProt P50895;Q9R069, chimera).
Assay [1] concerns the target recombinant Lu extracellular domain fused with a 6xHis-Tag (Sol-Lu) (Homo sapiens, UniProt P50895).
In assay [2] the target is T1, recombinant Lu extracellular domain fused with an Fc-Tag (Lu-Fc) (Homo sapiens, UniProt P50895).
Assay [3] concerns the target T1, recombinant Lu extracellular domain …. Description: SPR; BIAcore T200; Lu-Fc immobilized on a CM5 chip; C7 scFv (6.25, 12.5, 25, 50 and 100 nM) injected in 10 mM HEPES pH 7.4, 150 mM NaCl, 3 mM EDTA, 0.005% Tween 20 at 50 μl/min; nonlinear fitting. The note with it: both partners purified. (In general: In SPR one partner is held on a chip, and binding of the other changes the refractive index at the surface.)

The term Kd denotes a measure of binding affinity in units of concentration. Broadly, the koff is the first-order rate constant of dissociation. One may read the kon as the rate constant with which the complex forms.

T1 sequence (P50895 32-547): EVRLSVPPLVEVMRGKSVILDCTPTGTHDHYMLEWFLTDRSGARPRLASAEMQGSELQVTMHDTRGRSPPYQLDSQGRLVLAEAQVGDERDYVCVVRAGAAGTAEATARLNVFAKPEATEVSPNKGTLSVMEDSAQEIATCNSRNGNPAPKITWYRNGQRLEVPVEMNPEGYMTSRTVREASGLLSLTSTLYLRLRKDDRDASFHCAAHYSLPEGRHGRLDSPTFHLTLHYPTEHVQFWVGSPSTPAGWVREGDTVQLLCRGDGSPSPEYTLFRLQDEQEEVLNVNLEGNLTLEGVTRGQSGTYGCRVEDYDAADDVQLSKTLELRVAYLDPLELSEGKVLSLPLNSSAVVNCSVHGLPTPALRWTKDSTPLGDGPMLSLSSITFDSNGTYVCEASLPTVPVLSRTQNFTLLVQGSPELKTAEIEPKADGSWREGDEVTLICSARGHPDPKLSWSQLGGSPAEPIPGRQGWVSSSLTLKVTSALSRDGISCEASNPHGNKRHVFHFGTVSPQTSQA
Sequence of recombinant Lu extracellular domain fused with a 6xHis-Tag (Sol-Lu) (P50895 32-547): as above
Sequence of H12M35-Fc (Q9R069 other isoform, or with tags, fused parts or gaps chimera): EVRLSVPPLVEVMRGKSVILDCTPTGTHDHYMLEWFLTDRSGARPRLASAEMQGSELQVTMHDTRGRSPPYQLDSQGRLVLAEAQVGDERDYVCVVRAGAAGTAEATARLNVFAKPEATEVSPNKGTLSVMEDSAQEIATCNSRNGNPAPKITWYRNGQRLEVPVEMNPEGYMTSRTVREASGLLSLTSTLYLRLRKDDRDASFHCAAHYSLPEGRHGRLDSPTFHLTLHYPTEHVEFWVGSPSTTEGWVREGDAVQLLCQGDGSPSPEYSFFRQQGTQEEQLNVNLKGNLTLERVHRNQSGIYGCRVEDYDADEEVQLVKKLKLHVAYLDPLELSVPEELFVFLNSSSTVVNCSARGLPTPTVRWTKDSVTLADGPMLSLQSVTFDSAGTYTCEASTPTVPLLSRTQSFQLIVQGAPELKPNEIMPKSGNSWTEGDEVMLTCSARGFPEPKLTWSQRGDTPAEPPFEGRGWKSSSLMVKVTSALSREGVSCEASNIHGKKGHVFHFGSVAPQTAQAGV

B1: A1 (antibody, V domains shown)
VH: QVQLVQSGAEVRRPGSSVRISCRTSGGTFNNYALSWVRQAPGQGLEWMGGIIPIVGTAVYAEKFEDSVTVTADESASTAYMEVRSLRSEDTAVYYCATGEKFVSPWFGDLPLHHWGQGTLVTVSS
VL: QSVLTQPPSVSGAPGQRVTISCTGSSSNIGAPYDVHWYQQVPGTAPKLLIYGNTNRPSRVPDRFSGSKSGTSASLAITGLQADDEADYYCQSYDRSLGGSIFGGGTKLTVL
Turning to B1, the binding result (with H12M35-Fc; in assay [1]; in assay [2]) was “binds” each time.

B2: C7 scFv (soluble, purified) (scFv, V domains shown)
VH: B1 VH with V2M, R87G
VL: B1 VL with V41I, R59G
notes: VH of clone C7, as in m3; linker, printed as (Gly4Ser)3; VL of clone C7, as in m3; Single band of 29-30 kDa; monomer by size exclusion chromatography; The 6xHis tag is named in the discussion (6xHis tag antibody); also called the scFv form; the purified C7 scFv; source: E. coli HB2151, periplasmic fraction, purified (His Trap excel)
B2: in assay [3], the Kd turned out to be 36.6 nM, the koff came out at 0.0049 s⁻¹ and the kon stood at 135000 M⁻¹ s⁻¹.

B3: A4 (antibody, V domains shown)
VH: B1 VH
VL: B1 VL with R59G
For the molecule B3, the binding result (with H12M35-Fc; in assay [1]; in assay [2]) was “binds” throughout.

B4: B8 (antibody, V domains shown)
VH: B1 VH with V2M
VL: B1 VL with V41L, R59G, L108V
For the molecule B4, the binding result (with H12M35-Fc; in assay [1]; in assay [2]) was “binds” each time.
